Assay results: patent publication US20140242093A1, “METHODS AND COMPOSITIONS FOR MODULATING THE INNATE IMMUNE RESPONSE AND/OR MYOGENESIS IN A MAMMALIAN SUBJECT” (FRED HUTCHINSON CANCER RESEARCH CENTER, priority 2011, published 2014)

Test system: control human primary myoblasts
Test: Expression microarray of primary myoblasts transduced with lentivirus carrying DUX4-fl, DUX4-s or GFP
Protocol: Primary human myoblasts were collected and cultured as previously described (Snider et al., 2010). Primary myoblasts were maintained at or below 70% confluency for proliferation. For differentiation, cells were allowed to reach 95-100% confluency in growth medium. Once confluency was reached, the cells were changed to differentiation medium (F10 media supplemented with 1% horse serum, 10 μg/mL insulin, and 10 μg/mL transferrin, penicillin/streptomycin) and maintained for 4 days. Human RD cells were grown in DMEM in 10% bovine calf serum (Hyclone) and penicillin/streptomycin. The primary myoblasts were transduced with lentivirus carrying DUX-fl, DUX4- or GFP (MOI=15).
Expression microarrays were performed on the transduced cells at 24 hours after transduction as follows. […] Samples were analyzed by Illumina Human Whole Genome microarrays. Probe intensities were corrected, normalized, and summarized by the Lumi package of Bioconductor (Du et al., 2008). Differentially expressed genes were identified by the LIMMA package of Bioconductor (Wettenhall and Smyth, 2004). Gene set enrichment analysis (GSEA) was performed using the Bioconductor GOstats package (Falcon and Gentleman, 2007).

[1] = 2-fold change and FDR<0.01 vs lenti-GFP, 24 hours after transduction
[2] = 3-fold criteria (>1.584 log2-fold change and FDR<0.01)

B1: DUX4-s: short splice form of DUX4 (SEQ ID NO:112), keeps the double-homeobox domains, lacks the C-terminal activation domain (protein, listed as Homo sapiens)
chain: MALPTPSDSTLPAEARGRGRRRRLVWTPSQSEALRACFERNPYPGIATRERLAQAIGIPEPRVQIWFQNERSRQLRQHRRESRPWPGRRGPPEGRRKRTAVTGSQTALLLRAFEKDRFPGIAAREELARETGLPESRIQIWFQNRRARHPGQGGRAPAQV
- number of genes with decreased expression [1]: 45 genes
- number of genes with increased expression [1]: 159 genes
- number of genes decreased [2]: one
- number of genes increased [2]: 37 genes
- BQ437417 (no symbol given) expression fc (Refseq BQ437417, cultured human skeletal muscle): −0.126
- fc of ACVRL1 (expression array) (Refseq NM_000020.1): 0.06199
- fc of C3 (expression array) (Refseq NM_000064.1): 0.2479
- CA2 expression fc (Refseq NM_000067.1): 0.1046
- fc of COL1A1 (expression array) (Refseq NM_000088.3): −1.257
- CST3 fc (Refseq NM_000099.2): 0.1574
- ENG fc (Refseq NM_000118.1): 0.4927
- fc of GAMT (expression array) (Refseq NM_000156.4): −0.3529
- GBE1 fc (Refseq NM_000158.2): 0.4818
- fc of IDS (expression array) (Refseq NM_000202.3): 0.6655
- KCNA1 expression fc (Refseq NM_000217.2): 0.02842
- SGCG expression fc (Refseq NM_000231.1): 0.125
- NP expression fc (Refseq NM_000270.1): 0.2279
- fc of PTEN (expression array) (Refseq NM_000314.4): −0.3029
- SLC3A1 expression fc (Refseq NM_000341.2): 0.003792
- SOX9 expression fc (Refseq NM_000346.2): −0.3086
- fc of PAFAH1B1 (expression array) (Refseq NM_000430.2): −1.237
- HBA2 expression fc (Refseq NM_000517.3): 0.09333
- fc of HBB (expression array) (Refseq NM_000518.4): 1.196
- HBA1 expression fc (Refseq NM_000558.3): 0.08066
- IL8 expression fc (Refseq NM_000584.2, cultured human skeletal muscle): 1.186
- fc of IL15 (expression array) (Refseq NM_000585.2): −0.1029
- TAP1 expression fc (Refseq NM_000593.5, cultured human skeletal muscle): 0.6996
- fc of IL6 (expression array) (Refseq NM_000600.1): 1.198
- IL10RB fc (Refseq NM_000628.3): −0.05056
- fc of ALDH2 (expression array) (Refseq NM_000690.2): 0.2053
- fc of ANXA1 (expression array) (Refseq NM_000700.1): 0.08537
- fc of CYP2J2 (expression array) (Refseq NM_000775.2): 1.127
- fc of GAS6 (expression array) (Refseq NM_000820.1): −0.3187
- fc of MME (expression array) (Refseq NM_000902.3): −0.184
- P4HB fc (Refseq NM_000918.3): −0.1927
- PTGFR fc (Refseq NM_000959.3): 0.1496
- TOP2A fc (Refseq NM_001067.2): −0.6065
- TYMS fc (Refseq NM_001071.1): −0.09199
- VCAM1 expression fc (Refseq NM_001078.2, cultured human skeletal muscle): 0.6349
- ALOX15B fc (Refseq NM_001141.2): 0.4518
- ANPEP expression fc (Refseq NM_001150.1, cultured human skeletal muscle): 0.3635
- ART3 expression fc (Refseq NM_001179.3): 0.09073
- CA12 expression fc (Refseq NM_001218.3, cultured human skeletal muscle): 0.954
- fc of CASP4 (expression array) (Refseq NM_001225.3): 0.6908
- CD68 fc (Refseq NM_001251.1): 1.175
- CLIC1 fc (Refseq NM_001288.4): 0.3089
- CXADR expression fc (Refseq NM_001338.3): −0.07005
- DPYSL2 fc (Refseq NM_001386.4): 0.2285
- EMP3 fc (Refseq NM_001425.1): −0.2096
- FLT3LG fc (Refseq NM_001459.2): 0.3873
- CXCL1 expression fc (Refseq NM_001511.1, cultured human skeletal muscle): 0.2028
- fc of HAS1 (expression array) (Refseq NM_001523.1): 0.217
- PRMT2 fc (Refseq NM_001535.2): 0.07412
- NDST1 fc (Refseq NM_001543.3): −0.6912
- IFIT2 expression fc (Refseq NM_001547.4, cultured human skeletal muscle): 2.07
- IFIT1 expression fc (Refseq NM_001548.3, cultured human skeletal muscle): 0.7206
- IFIT3 expression fc (Refseq NM_001549.2, cultured human skeletal muscle): 1.806
- IFRD1 expression fc (Refseq NM_001550.2): −0.192
- IGFBP4 expression fc (Refseq NM_001552.2, cultured human skeletal muscle): 0.4048
- fc of CXCL10 (expression array) (Refseq NM_001565.2): 3.235
- AARS fc (Refseq NM_001605.2): 0.2776
- ACP2 fc (Refseq NM_001610.1): 0.2225
- TRIM23 expression fc (Refseq NM_001656.3): 0.6303
- ARSD fc (Refseq NM_001669.2): −0.2052
- fc of AUH (expression array) (Refseq NM_001698.1): 0.1604
- CFB expression fc (Refseq NM_001710.4, cultured human skeletal muscle): 0.6337
- C1R expression fc (Refseq NM_001733.4, cultured human skeletal muscle): 0.4933
- CAV1 fc (Refseq NM_001753.3): −0.1911
- fc of RUNX1 (expression array) (Refseq NM_001754.3): −1.047
- fc of CCND2 (expression array) (Refseq NM_001759.2): −0.5282
- CD9 expression fc (Refseq NM_001769.2): −0.004788
- CDH11 fc (Refseq NM_001797.2): 0.2419
- HBEGF expression fc (Refseq NM_001945.1): −0.07673
- ECGF1 expression fc (Refseq NM_001953.2, cultured human skeletal muscle): 0.6156
- EGR1 expression fc (Refseq NM_001964.2): 0.02651
- ETV6 fc (Refseq NM_001987.4): −0.05533
- EYA3 expression fc (Refseq NM_001990.2): −0.01672
- fc of ACSL1 (expression array) (Refseq NM_001995.2): 0.147
- FES fc (Refseq NM_002005.2): −0.3314
- FTH1 expression fc (Refseq NM_002032.2, cultured human skeletal muscle): −0.4183
- GTF2F1 expression fc (Refseq NM_002096.1): 0.29
- HLA-A fc (Refseq NM_002116.5): 0.5577
- HMOX1 expression fc (Refseq NM_002133.1, cultured human skeletal muscle): 0.9838
- HOXB2 expression fc (Refseq NM_002145.3): −0.04069
- HSPA6 expression fc (Refseq NM_002155.3): 0.128
- ID2 expression fc (Refseq NM_002166.4): 0.2756
- fc of IFNB1 (expression array) (Refseq NM_002176.2): 1.044
- INSM1 expression fc (Refseq NM_002196.2): 0.2306
- IRF1 expression fc (Refseq NM_002198.1, cultured human skeletal muscle): 0.3563
- ISG20 expression fc (Refseq NM_002201.4, cultured human skeletal muscle): 2.357
- fc of ITGA3 (expression array) (Refseq NM_002204.1): 0.1268
- fc of JUNB (expression array) (Refseq NM_002229.2): 0.5152
- JUP expression fc (Refseq NM_002230.1): −0.1057
- KPNA2 expression fc (Refseq NM_002266.2): −0.5075
- fc of LAMC1 (expression array) (Refseq NM_002293.2): −1.061
- fc of LSS (expression array) (Refseq NM_002340.3): −0.007301
- LTBR fc (Refseq NM_002342.1): 0.4061
- LUM fc (Refseq NM_002345.3): 0.3869
- LY6E expression fc (Refseq NM_002346.1, cultured human skeletal muscle): 0.2484
- fc of MDM2 (expression array) (Refseq NM_002392.2): 1.078
- MX1 expression fc (Refseq NM_002462.2, cultured human skeletal muscle): 0.2624
- MX2 expression fc (Refseq NM_002463.1, cultured human skeletal muscle): 0.9576
- fc of MYF6 (expression array) (Refseq NM_002469.1): −0.0236
- MYOD1 fc (Refseq NM_002478.4): −0.462
- NFYA expression fc (Refseq NM_002505.3): 0.9153
- OAS2 expression fc (Refseq NM_002535.2, cultured human skeletal muscle): 0.4553
- ODC1 expression fc (Refseq NM_002539.1): −0.2008
- PDE4B fc (Refseq NM_002600.3): 0.6757
- PFKP fc (Refseq NM_002627.3): 0.7759
- PIM1 expression fc (Refseq NM_002648.2): −0.6756
- EXOSC10 expression fc (Refseq NM_002685.2): 0.2771
- PNN expression fc (Refseq NM_002687.3): 0.04413
- PRKD1 fc (Refseq NM_002742.2): −0.6085
- PSMB9 expression fc (Refseq NM_002800.4, cultured human skeletal muscle): 0.9451
- PTX3 expression fc (Refseq NM_002852.2, cultured human skeletal muscle): 0.9442
- PYGB expression fc (Refseq NM_002862.3, cultured human skeletal muscle): −0.118
- fc of RAB13 (expression array) (Refseq NM_002870.2): 0.3496
- fc of RBMS1 (expression array) (Refseq NM_002897.3): 1.104
- fc of RBMS2 (expression array) (Refseq NM_002898.2): 1.448
- RXRA fc (Refseq NM_002957.3): −0.3202
- CCL2 expression fc (Refseq NM_002982.3, cultured human skeletal muscle): 0.4355
- CCL5 expression fc (Refseq NM_002985.2, cultured human skeletal muscle): 1.889
- CXCL6 expression fc (Refseq NM_002993.2, cultured human skeletal muscle): 0.1728
- CXCL5 expression fc (Refseq NM_002994.3, cultured human skeletal muscle): 0.824
- SLC2A5 expression fc (Refseq NM_003039.1, cultured human skeletal muscle): 0.8141
- SLC22A4 fc (Refseq NM_003059.2): 0.3817
- SNAI2 expression fc (Refseq NM_003068.3, cultured human skeletal muscle): 0.2027
- fc of SMARCD3 (expression array) (Refseq NM_003078.3): −0.3421
- SNRNP70 expression fc (Refseq NM_003089.4): 0.01776
- SOX4 expression fc (Refseq NM_003107.2): −0.2174
- SPG7 fc (Refseq NM_003119.2): −0.2796
- SRP19 expression fc (Refseq NM_003135.1): 0.227
- fc of STRN (expression array) (Refseq NM_003162.2): 1.092
- THBS1 fc (Refseq NM_003246.2): −0.5659
- UBA7 expression fc (Refseq NM_003335.2, cultured human skeletal muscle): 0.5729
- fc of UGCG (expression array) (Refseq NM_003358.1): 1.447
- WEE1 fc (Refseq NM_003390.2): 0.3325
- WNT5A fc (Refseq NM_003392.3): −0.3993
